Numbering of substitutions follows the chain as printed.

Sequences and labels used below:
T1: CD123 (target of Example 19) (Homo sapiens (Human), UniProt P26951 19-305, limits assumed)
T1 sequence: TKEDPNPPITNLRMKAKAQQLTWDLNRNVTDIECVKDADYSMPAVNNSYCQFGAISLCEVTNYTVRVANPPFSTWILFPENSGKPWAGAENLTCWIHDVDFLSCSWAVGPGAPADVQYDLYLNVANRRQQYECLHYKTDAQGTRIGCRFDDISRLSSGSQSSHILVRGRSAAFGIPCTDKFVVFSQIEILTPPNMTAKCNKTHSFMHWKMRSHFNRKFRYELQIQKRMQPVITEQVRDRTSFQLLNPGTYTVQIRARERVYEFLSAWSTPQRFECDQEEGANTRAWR

B1: SEQ ID NO 68 (designed binder)
chain: MGSWWEFTDRLDAIFDRLWALGGSEAELAAFEESIAIFEQDLQYYKGKGNPEVEALEYEANAIQYELEAYRHN
B2: SEQ ID NO 96 (designed binder)
chain: MGSWIEFNMRLDAIYERLVALGGSEAELAAFEKEIAAFESELQAYKGKGNPEVEWLRKVAANIRLELQAYRHN
B3: SEQ ID NO 97 (designed binder)
chain: B2 chain with I5S, V19T, K58H, V59S, N62R
B4: SEQ ID NO 98 (designed binder)
chain: B2 chain with I5V, M9I, V19Y, W55K, K58H, V59W, N62S, L65R
B5: SEQ ID NO 103 (designed binder)
chain: B2 chain with N8E, M9V, E16N, V19A, W55R, K58R, V59Y, L65H
B6: SEQ ID NO 123 (designed binder)
chain: B2 chain with I5T, M9L, E16D, V19M, K58A, V59S, N62A, L65V
B7: SEQ ID NO 124 (designed binder)
chain: B2 chain with I5S, N8Y, M9L, E16D, V19D, V59T, L65E
B8: SEQ ID NO 105 (designed binder)
chain: B2 chain with I5Y, N8H, M9H, V19L, K58S, V59S, L65K
B9: SEQ ID NO 125 (designed binder)
chain: B2 chain with I5S, N8H, M9V, E16A, V19D, W55R, K58E, V59W, L65R
B10: SEQ ID NO 94 (designed binder)
chain: B2 chain with I5T, N8A, M9W, E16D, V19L, K58H, L65R
B11: SEQ ID NO 75 (designed binder)
chain: MGSWVTFKDELADIKDFLEALGGSEAELAFFEVDIAEFEAELQFYKGKGNPEVEALRKEAAAIRDELQAYRHN
B12: SEQ ID NO 86 (designed binder)
chain: B11 chain with V5Y, T6V, D13E, D16Q, F30W, V33D, A40T, E41Q, F44H
B13: SEQ ID NO 92 (designed binder)
chain: MGSWEEFHSRLDAIDDRLWALGGSEAELAAFEKEIAAFESELQAYKGKGNPEVEWLRWEAATIRETLQAYRHN
B14: SEQ ID NO 70 (designed binder)
chain: MGSWEWFKSDLASIKWELEALGGSEAELAWFEHDIAEFEEDLQWYKGKGNPEVEALRKEAAAIRDELQAYRHN
B15: SEQ ID NO 76 (designed binder)
chain: B14 chain with E5S, S9E, S13D, W16F, H33L, E37D, E40Q, D41A, W44Q
B16: SEQ ID NO 77 (designed binder)
chain: B14 chain with E5W, W6E, S9E, S13E, E17F, E37K, E40F, D41E, W44Y
B17: SEQ ID NO 89 (designed binder)
chain: B14 chain with E5S, S9E, W16A, E17V, W30F, H33S, E40Q, D41E, W44Y
B18: SEQ ID NO 67 (designed binder)
chain: MGSWSEFVDRLDAIFDRLWALGGSEAELAWFEDTIAHFEWNLQEYKGKGNPEVEALNGEADAITDELHAYRHN
B19: SEQ ID NO 88 (designed binder)
chain: MGSWFWFKEDLAFIKEDLEALGGSEAELAWFEDGIAFFEWDLQDYKGKGNPEVEALRKEAAAIRDELQAYRHN
B20: SEQ ID NO 80 (designed binder)
chain: MGSWQIFKGELAYIKQYLEALGGSEAELAFFEFDIAEFEEDLQYYKGKGNPEVEALRKEAAAIRDELQAYRHN
B21: SEQ ID NO 93 (designed binder)
chain: MGSWSEFWQRLEAIEDRLWALGGSEAELAAFEKEIAAFESELQAYKGKGNPEVEWLRENAAMIRDELQAYRHN
B22: SEQ ID NO 100 (designed binder)
chain: B21 chain with S5I, W8Y, Q9D, E15Y, W19D, N59D, M62F, D65S, E66W
B23: SEQ ID NO 110 (designed binder)
chain: B21 chain with S5Y, W8E, Q9Y, W55Y, N59E, M62W, D65V, E66W
B24: SEQ ID NO 104 (designed binder)
chain: B13 chain with E5T, S9D, D12E, W55Y, W58E, T62Q, E65W, T66E
B25: SEQ ID NO 69 (designed binder)
chain: MGSWWEFTDRLEAIEDRLWALGGSEAELAHFEDSIAQFEQELQWYKGKGNPEVEALADEADAIESELHAYRHN
B26: SEQ ID NO 74 (designed binder)
chain: MGSWSFFKDDLAEIKYFLEALGGSEAELAMFEQTIAEFEYDLQDYKGKGNPEVEALRKEAAAIRDELQAYRHN
B27: SEQ ID NO 85 (designed binder)
chain: MGSWHVFKTELADIKFYLEALGGSEAELAMFELWIAEFEHELQDYKGKGNPEVEALRKEAAAIRDELQAYRHN
B28: SEQ ID NO 72 (designed binder)
chain: MGSWEFFKEVLAEIKYDLEALGGSEAELAWFETDIAGFEIDLQVYKGKGNPEVEALRKEAAAIRDELQAYRHN
B29: SEQ ID NO 84 (designed binder)
chain: B28 chain with E5Y, F6M, V10E, E13D, Y16W, D17Y, T33D, I40W, V44A
B30: SEQ ID NO 66 (designed binder)
chain: MGSWEEFDKRLDAITRRLMALGGSEAELAEFESTIAWFEWDLQEYKGKGNPEVEALDWEAYAIDYELGAYRHN
B31: SEQ ID NO 83 (designed binder)
chain: MGSWFNFKEELAVIKFQLEALGGSEAELAFFEWVIADFEDDLQEYKGKGNPEVEALRKEAAAIRDELQAYRHN
B32: SEQ ID NO 78 (designed binder)
chain: MGSWDEFKEDLAHIKTDLEALGGSEAELALFEDEIADFEMYLQHYKGKGNPEVEALRKEAAAIRDELQAYRHN
B33: SEQ ID NO 71 (designed binder)
chain: MGSWDHFKNDLAWIKKHLEALGGSEAELAEFEAVIAYFELYLQGYKGKGNPEVEALRKEAAAIRDELQAYRHN
B34: SEQ ID NO 81 (designed binder)
chain: MGSWYIFKEDLAEIKEELEALGGSEAELAYFEEEIALFEMELQWYKGKGNPEVEALRKEAAAIRDELQAYRHN
B35: SEQ ID NO 90 (designed binder)
chain: MGSWILFKDDLAWIKETLEALGGSEAELAFFEDNIADFEEQLQGYKGKGNPEVEALRKEAAAIRDELQAYRHN
B36: SEQ ID NO 91 (designed binder)
chain: B35 chain with I5Q, L6W, W13Y, F30L, N34M, E40F, Q41E, G44W
B37: SEQ ID NO 99 (designed binder)
chain: MGSWDEFGRRLYAIEWRLYALGGSEAELAAFEKEIAAFESELQAYKGKGNPEVEKLREIAAVIRSNLQAYRHN
notes: also called cg06
B38: SEQ ID NO 87 (designed binder)
chain: MGSWTEFKGELAEIKWILEALGGSEAELAFFEDEIAAFEWDLQKYKGKGNPEVEALRKEAAAIRDELQAYRHN
B39: SEQ ID NO 95 (designed binder)
chain: MGSWDEFYYRLEAIEMRLGALGGSEAELAAFEKEIAAFESELQAYKGKGNPEVEELRHYAAQIRHMLQAYRHN
B40: SEQ ID NO 79 (designed binder)
chain: MGSWFMFKEELADIKDWLEALGGSEAELASFESYIAWFEQDLQWYKGKGNPEVEALRKEAAAIRDELQAYRHN
B41: SEQ ID NO 82 (designed binder)
chain: MGSWYYFKDELADIKWDLEALGGSEAELAWFEMLIAQFELDLQWYKGKGNPEVEALRKEAAAIRDELQAYRHN
B42: SEQ ID NO 73 (designed binder)
chain: MGSWYDFKEDLADIKWMLEALGGSEAELAEFENVIAYFENDLQEYKGKGNPEVEALRKEAAAIRDELQAYRHN

In this experiment the target is T1, CD123 (target of Example 19). In words: library selection; assay not described.
As for B1, the binding result is reported as “binds”.

Turning to B2, the binding result is reported as “binds”. B3: the binding result is “binds”.

For the molecule B4, the binding result is given as “binds”.

Consider B5, for which the binding result is reported as “binds”. B6: the binding result is recorded as “binds”. Turning to B7, the binding result is “binds”. With B8, the binding result is “binds”. The same measure for B9: “binds”; for B10: “binds”; for B11: “binds”.

In the case of B12, the binding result is given as “binds”. On to B13, for which the binding result is on record as “binds”. As to B14, the binding result is recorded as “binds”. As for B15, the entry is “binds”; as for B16, “binds”; as for B17, “binds”.

In the case of B18, the binding result is “binds”.

As for B19, the binding result is “binds”. Consider B20, for which the binding result is recorded as “binds”.

In the case of B21, the binding result was “binds”. For B22, the binding result is reported as “binds”. As for B23, the entry is “binds”; as for B24, “binds”; as for B25, “binds”. As to B26, the binding result is listed as “binds”.

B27: the binding result is recorded as “binds”. As for B28, the binding result is reported as “binds”. The same measure for B29: “binds”; for B30: “binds”. As for B31, the binding result was “binds”. In the case of B32, the binding result is reported as “binds”. The same measure for B33: “binds”; for B34: “binds”; for B35: “binds”. On to B36, for which the binding result is reported as “binds”. In the case of B37, the binding result was “binds”. As for B38, the entry is “binds”; as for B39, “binds”. As for B40, the entry is “binds”. As for B41, the binding result is “binds”.

For B42, the binding result is “binds”.

The record behind these values is US20180251563A1 (SUBDOMAIN, published 2018).
